From IntAct's records for PubMed 24012959

B1: "Na(+)/H(+) exchange regulatory cofactor NHE-RF1" (Homo sapiens), O14745 (parent)
chain: MSADAAAGAPLPRLCCLEKGPNGYGFHLHGEKGKLGQYIRLVEPGSPAEKAGLLAGDRLVEVNGENVEKETHQQVVSRIRAALNAVRLLVVDPETDEQLQKLGVQVREELLRAQEAPGQAEPPAAAEVQGAGNENEPREADKSHPEQRELRPRLCTMKKGPSGYGFNLHSDKSKPGQFIRSVDPDSPAEASGLRAQDRIVEVNGVCMEGKQHGDVVSAIRAGGDETKLLVVDRETDEFFKKCRVIPSQEHLNGPLPVPFTNGEIQKENSREALAEAALESPRPALVRSASSDTSEELNSQDSPPKQDSTAPSSTSSSDPILDFNISLAMAKERAHQKRSSKRAPQMDWSKKNELFSNL

Variants of: B1
Conditions: with pgfrb_human PDGFRB
With MSADAAAGAPLPRLCCLEKGPNGYGFHLHGEKGKLGQYIRLVEPGSPAEKAGLLAGDRLVEVNGENVEKETHQQVVSRIRAALNAVRLLVVDPETDEQLQKLGVQVREELLRAQEAPGQAEPPAAAEVQGAGNENEPREADKSHPEQRELRPRLCTMKKGPSGYGFNLHSDKSKPGQFIRSVDPDSPAEASGLRAQDRIVEVNGVCMEGKQHGDVVSAIRAGGDETKLLVVDRETDEFFKKCRVIPSQEHLNGPLPVPFTNGEIQKENSREALAEAALESPRPALVRSASSDTSEELNSQVSPPKQDSTAPSSTSSSDPILDFNISLAMAKERAHQKRSSKRAPQMDWSKKNELFSNL [D301V] the “effect of a mutation on the interaction” value was “increasing interaction”.
